# Laboratory results published in publication PMC9750918, “Diprenylated cyclodipeptide production by changing the prenylation sequence of the nature’s synthetic machinery” (Applied Microbiology and Biotechnology, 2022).
# T1: 7-DMATS (Aspergillus fumigatus, UniProt Q4WYG3)
# T1 construct: gene etpPT; 7-DMATS-His6 (C-terminal tag kept), plasmid pLW40, expressed in E. coli, Ni-NTA purified
# T1 sequence (Q4WYG3 1-472): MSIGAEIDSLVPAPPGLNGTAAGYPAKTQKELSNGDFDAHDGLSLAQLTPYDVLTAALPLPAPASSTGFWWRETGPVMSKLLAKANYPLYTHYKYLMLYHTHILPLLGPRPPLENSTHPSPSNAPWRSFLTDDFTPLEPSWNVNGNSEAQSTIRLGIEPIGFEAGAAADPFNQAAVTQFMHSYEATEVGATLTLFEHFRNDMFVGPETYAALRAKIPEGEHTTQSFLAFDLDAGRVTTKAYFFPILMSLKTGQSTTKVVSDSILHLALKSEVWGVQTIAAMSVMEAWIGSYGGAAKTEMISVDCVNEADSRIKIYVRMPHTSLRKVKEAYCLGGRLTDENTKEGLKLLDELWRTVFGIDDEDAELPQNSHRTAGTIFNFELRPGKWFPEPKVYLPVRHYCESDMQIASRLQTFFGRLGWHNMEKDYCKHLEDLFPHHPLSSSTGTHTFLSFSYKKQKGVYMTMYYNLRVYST
# T2: 6-DMATSSa (Streptomyces ambofaciens, UniProt A3KIV6)
# T2 construct: gene SAM23877_0730; 6-DMATSSa-His6 (C-terminal tag kept), plasmid pJW12, expressed in E. coli, Ni-NTA purified
# T2 sequence (A3KIV6 1-375): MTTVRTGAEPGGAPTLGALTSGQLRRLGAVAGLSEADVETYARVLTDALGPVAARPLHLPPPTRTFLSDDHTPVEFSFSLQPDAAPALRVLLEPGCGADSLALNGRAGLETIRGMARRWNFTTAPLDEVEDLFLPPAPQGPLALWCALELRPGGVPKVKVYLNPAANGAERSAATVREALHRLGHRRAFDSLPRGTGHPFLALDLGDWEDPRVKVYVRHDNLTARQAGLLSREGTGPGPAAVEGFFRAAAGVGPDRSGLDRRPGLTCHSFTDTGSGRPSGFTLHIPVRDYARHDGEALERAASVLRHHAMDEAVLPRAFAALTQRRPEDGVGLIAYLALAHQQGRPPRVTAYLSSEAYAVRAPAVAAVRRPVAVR
# Experiments:
# 7-DMATS = target: T1, 7-DMATS; experiment: LCMS prenylation assay, conversion yield; assay type: biochemical; settings: 1 mM substrate; 1 mM DMAPP; 5 mM CaCl2; 4 µg protein in 50 µL; pH 7.5; 37 °C; 16 h; C6- and C7-prenylation
# 6-DMATSSa = target: T2, 6-DMATSSa; experiment: LCMS prenylation assay, conversion yield; assay type: biochemical; settings: 1 mM substrate; 1 mM DMAPP; 5 mM CaCl2; 4 µg protein in 50 µL; pH 7.5; 37 °C; 16 h; C6-prenylation
# [1] = substrate: CC(C)=CCOP(=O)(O)OP(=O)(O)O; experiment: HPLC prenylation assay, Michaelis-Menten fit; assay type: biochemical, Aspergillus ruber; settings: 1 mM C4-prenylated cyclo-L-Trp-L-Pro (3), 5 mM CaCl2, pH 7.5, 37 °C, 30 min
# Excerpt: (§1) HPLC prenylation assay, Michaelis-Menten fit on EchPT1
# [2] = substrate: CC(C)=CCc1ccc2[nH]cc(C[C@@H]3NC(=O)[C@@H]4CCCN4C3=O)c2c1; experiment: HPLC prenylation assay, Michaelis-Menten fit; assay type: biochemical, Aspergillus ruber; settings: 1 mM DMAPP, pH 7.5, 37 °C, 35 min
# Excerpt: as §1
# [3] = substrate: CC(C)=CCc1ccc2c(C[C@@H]3NC(=O)[C@@H]4CCCN4C3=O)c[nH]c2c1; experiment: HPLC prenylation assay, Michaelis-Menten fit; assay type: biochemical, Aspergillus ruber; settings: 1 mM DMAPP, pH 7.5, 37 °C, 30 min, N1-prenylation
# Excerpt: as §1
# [4] = substrate: CC(C)=CCc1cccc2[nH]cc(C[C@@H]3NC(=O)[C@@H]4CCCN4C3=O)c12; experiment: HPLC prenylation assay, Michaelis-Menten fit; assay type: biochemical, Aspergillus ruber; settings: 1 mM DMAPP, pH 7.5, 37 °C, 30 min
# Excerpt: as §1
Molecule,conversion yield (7-DMATS),conversion yield (6-DMATSSa),Km [1],kcat [1],kcat/Km [1],Km [2],kcat [2],kcat/Km [2],Km [3],kcat [3],kcat/Km [3],Km [4],kcat [4],kcat/Km [4]
"O=C1N[C@@H](Cc2c[nH]c3ccccc23)C(=O)N2CCC[C@@H]12 [compound 1, cyclo-L-Trp-L-Pro]",11.6 ± 1.4%,29.9 ± 0.6%,–,–,–,–,–,–,–,–,–,–,–,–
"EchPT1 (Aspergillus ruber) (protein, His6-EchPT1 (N-terminal tag kept), plasmid pVW90, expressed in E. coli, Ni-NTA purified) MPSEVLTSYYDYPTHDQEAWWRDTGPLFGRFLKGAGYDVHTQYQYLVFFIKNILPSLGPYPARWRSTITPTGLPIEYSLNFQLNSRPLLRIGFEPLSRFSGTPQDPYNKIAAADLLNQLSKLQLHEFDTQLFNHFTNEFELSKSESESLQKQGGINGKSTVRSQTAFGFDLKGGRVAVKGYAFAGLKNRATGTPVGQLISNSIRNLEPQMHCWDSFSILNSYMEESDGWNEYSFVSWDCVDIERSRLKLYGVHNAVTWDKVKEMWTLGGRIENNATIKTGLELLQHMWSLLQINEGDRDYKGGFAADNGGKTLPIIWNYELNKGSPHPAPKFYFPVHGENDLQVSKSISEFFTHLGWQDHARQYPHLLRQIYPNQNISQTERLQAWISFAYNERTGPYLSVYYYSAERPPWGSDQVK",–,–,100 ± 10 µM,0.25 ± 0.02 s⁻¹,2500 M⁻¹ s⁻¹,80 ± 20 µM,0.03 ± 0.004 s⁻¹,375 M⁻¹ s⁻¹,50 ± 7 µM,0.007 ± 0.0004 s⁻¹,140 M⁻¹ s⁻¹,60 ± 10 µM,0.21 ± 0.02 s⁻¹,3500 M⁻¹ s⁻¹
